Source: doi:10.1101/2023.04.06.534471

Biological target: Dendritic cell-specific intercellular adhesion molecule 3-grabbing nonintegrin (DC-SIGN), on the Biacore chip (UniProt Q9NNX6)
Assay: SPR

Sequence of UniProt Q9NNX6 (Q9NNX6 whole entry): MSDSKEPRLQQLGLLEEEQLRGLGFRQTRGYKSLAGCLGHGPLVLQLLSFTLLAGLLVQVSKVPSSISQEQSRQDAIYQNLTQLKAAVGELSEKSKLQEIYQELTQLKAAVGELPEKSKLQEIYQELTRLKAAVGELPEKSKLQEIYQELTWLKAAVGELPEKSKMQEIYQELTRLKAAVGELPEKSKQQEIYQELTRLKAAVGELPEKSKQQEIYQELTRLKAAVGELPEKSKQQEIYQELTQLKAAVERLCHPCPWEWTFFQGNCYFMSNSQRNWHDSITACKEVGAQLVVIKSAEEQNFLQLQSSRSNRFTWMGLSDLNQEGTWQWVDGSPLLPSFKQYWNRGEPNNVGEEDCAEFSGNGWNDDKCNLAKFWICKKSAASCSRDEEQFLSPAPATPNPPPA

Surface layer protein B (SlpB) from Levilactobacillus brevis JCM 1059 (natural protein)
Kd: 30.3 nM
